Experimental data reported in publication PMC10397247.
Each block holds one binder with its values, some of them ahead of it.

Experiments:
Test in all cases: two-hybrid library CCNG1;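 note: natural log of median RNA to DNA barcode read ratio; higher means stronger binding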
P12A = biological target: T1, P12A
T1 chain: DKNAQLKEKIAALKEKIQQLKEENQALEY

P1A = biological target: T2, P1A
T2 chain: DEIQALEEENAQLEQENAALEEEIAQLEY

P2A = biological target: T3, P2A
T3 chain: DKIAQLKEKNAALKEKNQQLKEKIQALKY

P3A = biological target: T4, P3A
T4 chain: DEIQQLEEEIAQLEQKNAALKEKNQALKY

P4A = biological target: T5, P4A
T5 chain: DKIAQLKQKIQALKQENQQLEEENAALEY

P5A = biological target: T6, P5A
T6 chain: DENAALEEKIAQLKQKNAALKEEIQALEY

P6A = biological target: T7, P6A
T7 chain: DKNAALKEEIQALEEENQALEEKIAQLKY

P7A = biological target: T8, P7A
T8 chain: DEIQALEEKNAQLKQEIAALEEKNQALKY

P8A = biological target: T9, P8A
T9 chain: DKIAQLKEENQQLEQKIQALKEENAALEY

P9A = biological target: T10, P9A
T10 chain: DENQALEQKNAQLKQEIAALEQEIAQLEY

P11A = biological target: T11, P11A
T11 chain: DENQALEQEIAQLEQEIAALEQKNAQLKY

4H1387-bH = biological target: T12, 4H1387-bH
T12 chain: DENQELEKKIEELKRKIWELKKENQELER

4H1406-bH = biological target: T13, 4H1406-bH
T13 chain: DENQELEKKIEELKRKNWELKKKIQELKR

4H3592-bH = biological target: T14, 4H3592-bH
T14 chain: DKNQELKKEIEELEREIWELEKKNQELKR

4H3601-bH = biological target: T15, 4H3601-bH
T15 chain: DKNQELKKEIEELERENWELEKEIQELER

4H3907-bH = biological target: T16, 4H3907-bH
T16 chain: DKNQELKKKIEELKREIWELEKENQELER

4H4001-bH = biological target: T17, 4H4001-bH
T17 chain: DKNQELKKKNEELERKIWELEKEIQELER

4H4038-bH = biological target: T18, 4H4038-bH
T18 chain: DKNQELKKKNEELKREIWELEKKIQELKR

4H850-bN = biological target: T19, 4H850-bN
T19 chain: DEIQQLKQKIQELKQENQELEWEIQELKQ

4H1158-bH = biological target: T20, 4H1158-bH
T20 chain: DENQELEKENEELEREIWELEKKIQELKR

4H118-bH = biological target: T21, 4H118-bH
T21 chain: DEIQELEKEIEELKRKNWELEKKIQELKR

4H170-bH = biological target: T22, 4H170-bH
T22 chain: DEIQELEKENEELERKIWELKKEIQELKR

4H1831-bH = biological target: T23, 4H1831-bH
T23 chain: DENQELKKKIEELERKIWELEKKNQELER

4H2586-bH = biological target: T24, 4H2586-bH
T24 chain: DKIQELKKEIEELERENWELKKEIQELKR

4H2627-bH = biological target: T25, 4H2627-bH
T25 chain: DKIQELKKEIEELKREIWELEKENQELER

4H2673-bH = biological target: T26, 4H2673-bH
T26 chain: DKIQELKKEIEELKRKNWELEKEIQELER

4H2702-bH = biological target: T27, 4H2702-bH
T27 chain: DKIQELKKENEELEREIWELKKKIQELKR

4H3010-bH = biological target: T28, 4H3010-bH
T28 chain: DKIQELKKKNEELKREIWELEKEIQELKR

4H3112-bH = biological target: T29, 4H3112-bH
T29 chain: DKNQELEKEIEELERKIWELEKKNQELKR

4H3427-bH = biological target: T30, 4H3427-bH
T30 chain: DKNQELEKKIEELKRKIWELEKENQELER

4H346-bH = biological target: T31, 4H346-bH
T31 chain: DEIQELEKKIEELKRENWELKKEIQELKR

4H3926-bH = biological target: T32, 4H3926-bH
T32 chain: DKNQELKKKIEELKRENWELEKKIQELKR

4H4073-bH = biological target: T33, 4H4073-bH
T33 chain: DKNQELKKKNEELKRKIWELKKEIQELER

4H457-bH = biological target: T34, 4H457-bH
T34 chain: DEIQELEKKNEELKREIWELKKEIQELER

4H575-bH = biological target: T35, 4H575-bH
T35 chain: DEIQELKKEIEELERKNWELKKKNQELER

4H683-bH = biological target: T36, 4H683-bH
T36 chain: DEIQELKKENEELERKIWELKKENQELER

4H754-bH = biological target: T37, 4H754-bH
T37 chain: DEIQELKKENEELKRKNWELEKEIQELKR

4H780-bH = biological target: T38, 4H780-bH
T38 chain: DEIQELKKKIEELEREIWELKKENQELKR

4H797-bH = biological target: T39, 4H797-bH
T39 chain: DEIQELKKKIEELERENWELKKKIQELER

4H855-bH = biological target: T40, 4H855-bH
T40 chain: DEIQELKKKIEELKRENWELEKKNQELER

4H918-bH = biological target: T41, 4H918-bH
T41 chain: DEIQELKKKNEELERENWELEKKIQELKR

4H953-bH = biological target: T42, 4H953-bH
T42 chain: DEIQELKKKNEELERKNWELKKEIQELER

4H968-bH = biological target: T43, 4H968-bH
T43 chain: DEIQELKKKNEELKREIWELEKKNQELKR

4H1158-bN = biological target: T44, 4H1158-bN
T44 chain: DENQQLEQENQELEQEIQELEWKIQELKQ

4H118-bN = biological target: T45, 4H118-bN
T45 chain: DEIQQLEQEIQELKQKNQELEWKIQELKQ

4H170-bN = biological target: T46, 4H170-bN
T46 chain: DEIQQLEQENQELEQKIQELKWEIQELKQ

4H1831-bN = biological target: T47, 4H1831-bN
T47 chain: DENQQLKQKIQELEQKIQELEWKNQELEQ

4H2586-bN = biological target: T48, 4H2586-bN
T48 chain: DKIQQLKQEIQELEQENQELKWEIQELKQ

4H2627-bN = biological target: T49, 4H2627-bN
T49 chain: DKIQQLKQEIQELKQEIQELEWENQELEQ

4H2673-bN = biological target: T50, 4H2673-bN
T50 chain: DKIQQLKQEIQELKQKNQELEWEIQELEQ

4H2702-bN = biological target: T51, 4H2702-bN
T51 chain: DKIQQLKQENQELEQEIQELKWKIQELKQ

4H3010-bN = biological target: T52, 4H3010-bN
T52 chain: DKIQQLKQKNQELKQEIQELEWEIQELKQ

4H3112-bN = biological target: T53, 4H3112-bN
T53 chain: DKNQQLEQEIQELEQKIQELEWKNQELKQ

4H3427-bN = biological target: T54, 4H3427-bN
T54 chain: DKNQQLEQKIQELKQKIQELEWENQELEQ

4H346-bN = biological target: T55, 4H346-bN
T55 chain: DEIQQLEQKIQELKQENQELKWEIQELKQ

4H3926-bN = biological target: T56, 4H3926-bN
T56 chain: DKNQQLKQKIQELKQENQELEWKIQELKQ

4H4073-bN = biological target: T57, 4H4073-bN
T57 chain: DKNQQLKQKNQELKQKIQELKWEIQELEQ

4H457-bN = biological target: T58, 4H457-bN
T58 chain: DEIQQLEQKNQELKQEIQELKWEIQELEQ

4H575-bN = biological target: T59, 4H575-bN
T59 chain: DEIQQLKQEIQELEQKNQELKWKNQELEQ

4H683-bN = biological target: T60, 4H683-bN
T60 chain: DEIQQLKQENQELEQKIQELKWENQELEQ

4H754-bN = biological target: T61, 4H754-bN
T61 chain: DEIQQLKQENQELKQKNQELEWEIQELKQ

4H780-bN = biological target: T62, 4H780-bN
T62 chain: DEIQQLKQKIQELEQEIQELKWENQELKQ

4H797-bN = biological target: T63, 4H797-bN
T63 chain: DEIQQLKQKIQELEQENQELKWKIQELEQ

4H855-bN = biological target: T64, 4H855-bN
T64 chain: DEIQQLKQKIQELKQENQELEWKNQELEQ

4H918-bN = biological target: T65, 4H918-bN
T65 chain: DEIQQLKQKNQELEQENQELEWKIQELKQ

4H953-bN = biological target: T66, 4H953-bN
T66 chain: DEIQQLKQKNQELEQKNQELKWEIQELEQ

4H968-bN = biological target: T67, 4H968-bN
T67 chain: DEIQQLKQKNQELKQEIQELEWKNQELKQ

interaction score (P12A): -1.24
interaction score (P1A): -1.2
interaction score (P2A): -1.43
interaction score (P3A): 0.438
interaction score (P4A): -1.48
interaction score (P5A): -1.22
interaction score (P6A): -1.16
interaction score (P7A): -1.15
interaction score (P8A): -1.25
interaction score (P9A): -0.254
Binder: DKNAQLKEKIAALKEKIQQLKEENQALEY [P12A]

interaction score (P11A): -0.318
interaction score (P12A): 2.09
interaction score (P1A): -0.233
interaction score (P2A): -0.397
interaction score (P3A): 0.195
interaction score (P4A): 1.99
interaction score (P5A): 0.167
interaction score (P6A): -0.873
interaction score (P7A): -1.77
interaction score (P8A): -0.16
interaction score (P9A): 0.145
Binder: DENQALEQEIAQLEQEIAALEQKNAQLKY [P11A]

interaction score (4H1387-bH): 0.423
interaction score (4H1406-bH): -0.693
interaction score (4H3592-bH): 1.37
interaction score (4H3601-bH): -0.847
interaction score (4H3907-bH): 1.59
interaction score (4H4001-bH): 0.333
interaction score (4H4038-bH): 1.09
interaction score (4H850-bN): 0.44
Binder: DENQELEKKIEELKRKIWELKKENQELER [4H1387-bH]

interaction score (4H1158-bH): 0.619
interaction score (4H118-bH): 0.729
interaction score (4H170-bH): 0.0131
interaction score (4H1831-bH): 0.197
interaction score (4H2586-bH): 0.198
interaction score (4H2627-bH): 1.81
interaction score (4H2673-bH): 0.836
interaction score (4H2702-bH): 0.109
interaction score (4H3010-bH): 1.95
interaction score (4H3112-bH): -0.598
interaction score (4H3427-bH): 0.596
interaction score (4H346-bH): 0.268
interaction score (4H3926-bH): 1.63
interaction score (4H4073-bH): 1.57
interaction score (4H457-bH): 0.951
interaction score (4H575-bH): 0.888
interaction score (4H683-bH): 1.13
interaction score (4H754-bH): 0.159
interaction score (4H780-bH): 0.975
interaction score (4H797-bH): 0.508
interaction score (4H855-bH): -0.335
interaction score (4H918-bH): -0.233
interaction score (4H953-bH): 0.0112
interaction score (4H968-bH): 0.725
Binder: DENQELEKENEELEREIWELEKKIQELKR [4H1158-bH]

interaction score (4H1158-bN): 0.0264
interaction score (4H118-bN): 0.579
interaction score (4H170-bN): -0.262
interaction score (4H1831-bN): -0.553
interaction score (4H2586-bN): 0.693
interaction score (4H2627-bN): -1.89
interaction score (4H2673-bN): -1.07
interaction score (4H2702-bN): -0.191
interaction score (4H3010-bN): 1.32
interaction score (4H3112-bN): 0.501
interaction score (4H3427-bN): -0.273
interaction score (4H346-bN): -0.45
interaction score (4H3926-bN): -1.19
interaction score (4H4073-bN): 2.1
interaction score (4H457-bN): 0.107
interaction score (4H575-bN): -0.306
interaction score (4H683-bN): 0.827
interaction score (4H754-bN): 0.195
interaction score (4H780-bN): -0.000435
interaction score (4H797-bN): -0.804
interaction score (4H855-bN): 0.326
interaction score (4H918-bN): -1.72
interaction score (4H953-bN): 0.0849
interaction score (4H968-bN): -1.23
Binder: DENQQLEQENQELEQEIQELEWKIQELKQ [4H1158-bN]
